One molecule from PMC12827253, “GADD45β inhibits RIPK3-mediated NF-κB activation by interfering with NEMO-RIPK1-RIPK3 interactions” (Cell Death Discovery, 2025) can be followed below.

The target in the assay is T1, human recombinant RIPK3 (human, UniProt Q9Y572 1-518).
T1 construct: RIPK3, human, bought recombinant protein; also called rhRIPK3; source: bought: Mybiosource cod; MBS1442585
Briefly: BLI; rhRIPK3 immobilised on AR2G sensor (10 μg/mL in 10 mM NaAc pH 4.5); rhGADD45β as analyte, 3.1–100 nM; 25 mM Tris pH 7.5, 100 mM NaCl, 0.02% Tween 20, 0.1% BSA; 25 °C; 1:1 Langmuir model; apparent. To be noted: both partners purified.

T1 sequence (Q9Y572 whole entry): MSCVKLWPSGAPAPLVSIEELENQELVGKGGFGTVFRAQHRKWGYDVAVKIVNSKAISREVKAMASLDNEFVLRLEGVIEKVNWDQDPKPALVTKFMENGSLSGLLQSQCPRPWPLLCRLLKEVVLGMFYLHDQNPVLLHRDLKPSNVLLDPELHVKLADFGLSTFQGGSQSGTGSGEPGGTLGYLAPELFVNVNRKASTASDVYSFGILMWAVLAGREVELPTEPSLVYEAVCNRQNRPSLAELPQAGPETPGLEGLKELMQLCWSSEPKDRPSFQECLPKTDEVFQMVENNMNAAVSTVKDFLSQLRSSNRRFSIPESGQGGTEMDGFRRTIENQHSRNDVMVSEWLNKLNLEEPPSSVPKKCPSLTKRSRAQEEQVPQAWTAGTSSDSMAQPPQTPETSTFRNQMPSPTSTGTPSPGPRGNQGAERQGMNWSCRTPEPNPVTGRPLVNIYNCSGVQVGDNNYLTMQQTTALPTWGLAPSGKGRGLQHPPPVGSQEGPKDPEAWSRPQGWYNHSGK

B1: recombinant human GADD45β (natural protein, UniProt O75293 1-160, looked up)
chain: MTLEELVACDNAAQKMQTVTAAVEELLVAAQRQDRLTVGVYESAKLMNVDPDSVVLCLLAIDEEEEDDIALQIHFTLIQSFCCDNDINIVRVSGMQRLAQLLGEPAETQGTTEARDLHCLLVTNPHTDAWKSHGLVEVASYCEESRGNNQWVPYISLQER
notes: GADD45β, human, recombinant; also called rhGADD45β; Growth Arrest and DNA Damage-inducible beta
Consider B1, for which the Kd was determined as 1.73 nM.
